B1: WSC02 [human] / CXCR4 wt (transfected 293T cells) [human] (parent complex)
chain 1: IVRWSKKVPCVS
chain 2: MEGISIYTSDNYTEEMGSGDYDSMKEPCFREENANFNKIFLPTIYSIIFLTGIVGNGLVILVMGYQKKLRSMTDKYRLHLSVADLLFVITLPFWAVDAVANWYFGNFLCKAVHVIYTVNLYSSVLILAFISLDRYLAIVHATNSQRPRKLLAEKVVYVGVWIPALLLTIPDFIFANVSEADDRYICDRFYPNDLWVVVFQFQHIMVGLILPGIVILSCYCIIISKLSHSKGHQKRKALKTTVILILAFFACWLPYYIGISIDSFILLEIIKQGCEFENTVHKWISITEALAFFHCCLNPILYAFLGAKFKTSAQHALTSVSRGSSLKILSKGKRGGHSSVSTESESSSFHSS

Variants of: B1
Test: 12G5 antibody competition assay, flow cytometry on transfected 293T cells; 2 h incubation; IC50 set to 1000 µM if above the maximally used concentration; parent: 1e+03 nM; read off a plot

Variant	IC50 [µM]
chain 2 E277A	~0.75
chain 2 D97S	~320
chain 2 D97E	~8
chain 2 D97N	~380
chain 2 D97Q	~690
chain 2 L41A	~1.5
chain 2 D187E	~0.42

Now from value to variant:

IC50 [µM]	Variant
~0.6	chain 2 V112A
~0.4	chain 2 V112L
~4.8	chain 2 L41A, chain 2 V112A

— publication PMC8458281, “Computational modeling and experimental validation of the EPI-X4/CXCR4 complex allows rational design of small peptide antagonists” (Communications Biology, 2021)
